Earlier results as cited in patent US10905736B2, “Ezetimibe-associated ApoA-I mimetic peptides showing enhanced synergism” (The Regents of the University of California, priority 2016, dated 2021).

Conditions: two hours after LDLR-/- mice finished eating WD containing Tg6F; cited from earlier work

Sequence: DWLKAFYDKFFEKFKEFF [6F peptide]
- presence of intact peptide in small intestine and plasma: found in the small intestine but not in the plasma
